This is an account of results in patent US20240409960A1, “METHOD FOR CONTROLLING PROTEIN FUNCTION” (The University of Tokyo, priority 2021, published 2024).

What all share (type): cell-based, human
For series [1], the system named is StopFluc luciferase reporter gene in HEK293FT cells. The series can be described thus: luciferase-based HDR (Homology-directed repair) assay of Cas9 endonuclease activity. An excerpt:
For constructing a luciferase reporter for detecting Cas9 endonuclease activity, the sequence encoding firefly luciferase (Fluc) was amplified from pGL4.31 vector (Promega). The firefly luciferase with an in-flamed stop codon (StopFluc) was produced by an overlapping PCR extension method. The primer (5′-[…]-3′: SEQ ID No: 40) was used for PCR. The Stop-Fluc construct was inserted into the HindII-XhoI site of pcDNA 3.1/V 5-HisA having the CMV promoter. A luciferase donor vector was constructed by inserting the reverse firefly luciferase sequence into the XhoI and HindIII site of the bacterial expression pCold-I vector (Clontech), and was used as donor DNA.
HEK293T cells (American Type Culture Collection: ATCC) were cultured at 37° C. under 5% CO2 in Dulbecco's Modified Eagle Medium (DMEM: Thermo Fisher Scientific) supplemented with 10% fetal bovine serum (FBS: Thermo Fisher Scientific), 100 units/ml of penicillin and 100 μg/ml of streptomycin (Thermo Fisher Scientific) and 2 mM GlutaMAX (Thermo Fisher Scientific).
For luciferase assay, HEK 293 cells were plated at 25,000 cells per well on a 96-well flat clear-bottom microplate (Greiner Bio-One), and were then cultured for 24 hours at 37° C. in 5% CO2. The cells were transfected with cDNAs encoding destabilized Cas9 or an empty vector (negative control) along with the luciferase reporter (StopFluc), donor DNA (Fluc) and Cas9 encoding gRNA, using Lipofectamine 3000 (Thermo Fisher Scientific) at 37° C. The total amount of DNA was 50 ng per well. The transfection ratio of the destabilized Cas9, the luciferase reporter, the donor DNA, and the gRNA was set to be equal (1:1:1:1). […] Bioluminescence measurement was performed for 1 second per well at room temperature using a Centro XS^3 LB 960 plate-reading luminometer (Berthold Technologies).
Full-length Cas9 was used as a positive control. […] Bioluminescence measurement was performed for 1 second per well at room temperature using a Centro XS^3 LB 960 plate-reading luminometer (Berthold Technologies).

The subject of series [2] is FRT sites (Floxed (FRT)-STOP Fluc reporter) in HEK293 cells. In words: luciferase assay of Flp-FRT DNA recombination in HEK293 cells. As to conditions: 5 ng plasmid, 24 or 48 hours. The procedure:
(§1) For constructing the luciferase reporters detecting for the activities of Flp-FRT recombinase, VCre-Vlox recombinase and Dre-rox recombinase, the FRT site ([…]: SEQ ID No: 37), the Vlox site ([…]: SEQ ID No: 38), the rox site ([…]: SEQ ID No: 39), were inserted into HindIII and KpnI sites and ClaI and EcoRI sites in the pcDNA3.1 (+) vector of the luciferase reporter (of loxP-stop-loxP-Fluc).
(§2) For luciferase assay, HEK 293 cells were plated at 25,000 cells per well on a 96-well flat white microplate (Thermo Fisher Scientific), and were then cultured for 24 hours at 37° C. in 5% CO2. The cells were transfected with cDNAs encoding destabilized Cre along with the luciferase reporter (loxP-stop-loxP Fluc), using X-tremeGENE9 reagent (Merck Millipore) at 37° C. The total amount of DNA was 50 ng per well. Twenty-four hours after the transfection, TMP or DMSO was added into the cells, and the cells were further cultured for 24 hours or 48 hours. Just before the luciferase assay, the medium was replaced with Hanks' balanced salt solution (HBSS) (Thermo Fisher Scientific) containing 0.2 mM D-luciferin potassium salt. Bioluminescence measurement was performed for 1 second per well at room temperature using a Centro XS^3 LB 960 plate-reading luminometer (Berthold Technologies).

For series [3], the system named is Vlox sites (Floxed (Vlox)-STOP Fluc reporter) in HEK293 cells. The series can be described thus: luciferase assay of VCre-Vlox DNA recombination in HEK293 cells. As to conditions: 5 ng plasmid, TMP 10 nM or 500 nM or DMSO, 24 or 48 hours. As to the method: as §1, §2

For “SPEED-Cas9: split spCas9 (a.a. 2-713 and 714-1,368) tagged with NZ/CZ leucine zippers and DD sequences, joined via P2A; SEQ ID No: 28”, in series [1] (12.5 ng plasmid, DMSO, 48 hours), the “background endonuclease activity in the absence of TMP” value was “extremely low background level of endonuclease activity, comparable to that of the negative control group using the pcDNA3.1 empty vector plasmid”. The TMP-dependent endonuclease activity result in series [1] (12.5 ng plasmid, TMP 500 nM, 48 hours) is “extremely high TMP-dependent endonuclease activity”. Further, the “TMP-dependent endonuclease activity compared with full-length Cas9” value in series [1] (TMP 500 nM (FIGS. 9d and e)) is reported as “comparable to that of full-length Cas9”.

B1: DD-Flp: Flp tagged with single DD; SEQ ID No: 15 (protein, listed as Saccharomyces cerevisiae)
chain: MVSKYPYDVPDYARSGGSGGMISLIAALAVDYVIGMENAMPWNLPADLAWFKRNTLNKPVIMGRHTWESIGRPLPGRKNIILSSQPSTDDRVTWVKSVDEAIAACGDVPEIMVIGGGRVIEQFLPKAQKLYLTHIDAEVEGDTHFPDYEPDDWESVFSEFHDADAQNSHSYCFEILERRGGSGGSGGKLVPKKKRKVGGSQFDILCKTPPKVLVRQFVERFERPSGEKIASCAAELTYLCWMITHNGTAIKRATFMSYNTIISNSLSFDIVNKSLQFKYKTQKATILEASLKKLIPAWEFTIIPYNGQKHQSDITDIVSSLQLQFESSEEADKGNSHSKKMLKALLSEGESIWEITEKILNSFEYTSRFTKTKTLYQFLFLATFINCGRFSDIKNVDPKSFKLVQNKYLGVIIQCLVTETKTSVSRHIYFFSARGRIDPLVYLDEFLRNSEPVLKRVNRTGNSSSNKQEYQLLKDNLVRSYNKALKKNAPYPIFAIKNGPKSHIGRHLMTSFLSMKGLTELTNVVGNWSDKRASAVARTTYTHQITAIPDHYFALVSRYYAYDPISKEMIALKDETNPIEEWQHIEQLKGSAEGSIRYPAWNGIISQEVLDYLSSYINRRI
modifications: MISC_FEATURE - HAtag; DOMAIN 21..179 Degradation Domain; MISC_FEATURE - Flp
Regarding B1, the “background DNA recombination activity in the absence of TMP” value in series [2] is on record as “high background DNA recombination activity comparable to full-length Flp”.

B2: SPEED-Flp: split Flp (a.a. 2-374 and 375-423), single DD on the N-terminal and C-terminal sides; SEQ ID No: 16 (protein, listed as Saccharomyces cerevisiae)
chain: MVSKYPYDVPDYARSGGSGGMISLIAALAVDYVIGMENAMPWNLPADLAWFKRNTLNKPVIMGRHTWESIGRPLPGRKNIILSSQPSTDDRVTWVKSVDEAIAACGDVPEIMVIGGGRVIEQFLPKAQKLYLTHIDAEVEGDTHFPDYEPDDWESVFSEFHDADAQNSHSYCFEILERRGGSGGSGGKLVPKKKRKVGGSQFDILCKTPPKVLVRQFVERFERPSGEKIASCAAELTYLCWMITHNGTAIKRATFMSYNTIISNSLSFDIVNKSLQFKYKTQKATILEASLKKLIPAWEFTIIPYNGQKHQSDITDIVSSLQLQFESSEEADKGNSHSKKMLKALLSEGESIWEITEKILNSFEYTSRFTKTKTLYQFLFLATFINCGRFSDIKNVDPKSFKLVQNKYLGVIIQCLVTETKTSVSRHIYFFSARGRIDPLVYLDEFLRNSEPVLKRVNRTGNSSSNKQEYQLLKDNLVRSYNKALKKNAPYPIFAIKNGPKSHIGRHLMTSFLSMKGLTELTNVVGNWSDKRASAVARTTYTHQITAIPDHYFALVSRYYAYDPISKEMIALGSGSGATNFSLLKQAGDVEENPGPLEKDETNPIEEWQHIEQLKGSAEGSIRYPAWNGIISQEVLDYLSSYINRRIGGSGGSGGMISLIAALAVDYVIGMENAMPWNLPADLAWFKRNTLNKPVIMGRHTWESIGRPLPGRKNIILSSQPSTDDRVTWVKSVDEAIAACGDVPEIMVIGGGRVIEQFLPKAQKLYLTHIDAEVEGDTHFPDYEPDDWESVFSEFHDADAQNSHSYCFEILERR
modifications: MISC_FEATURE - HAtag; DOMAIN 21..179 Degradation Domain; SIGNAL 190..197 Nuclear Localization Signal; MISC_FEATURE - N-terminal side of Flp; MISC_FEATURE - P2A; MISC_FEATURE - C-terminal side of Flp; DOMAIN 656..814 Degradation Domain
With B2, in series [2], the “background DNA recombination activity in the absence of TMP” value is recorded as “extremely low background level of DNA recombination activity comparable to a negative control group using the pcDNA3.1 empty vector plasmid”. In series [2] (TMP 10 nM or 500 nM), the “TMP-dependent DNA recombination activity” value is reported as “extremely high TMP-dependent DNA recombination activity”.

B3: SPEED-VCre: split VCre (a.a. 2-277 and 278-380), single DD on the N-terminal and C-terminal sides; SEQ ID No: 20 (protein, listed as Vibrio parahaemolyticus)
chain: MVSKYPYDVPDYARSGGSGGMISLIAALAVDYVIGMENAMPWNLPADLAWFKRNTLNKPVIMGRHTWESIGRPLPGRKNIILSSQPSTDDRVTWVKSVDEAIAACGDVPEIMVIGGGRVIEQFLPKAQKLYLTHIDAEVEGDTHFPDYEPDDWESVFSEFHDADAQNSHSYCFEILERRGGSGGSGGKLVPKKKRKVGGIENQLSLLGDFSGVRPDDVKTAIQAAQKKGINVAENEQFKAAFEHLLNEFKKREERYSPNTLRRLESAWTCFVDWCLANHRHSLPATPDTVEAFFIERAEELHRNTLSVYRWAISRVHRVAGCPDPCLDIYVEDRLKAIARKKVREGEAVKQASPFNEQHLLKLTSLWYRSDKLLLRRNLALLAVAYESMLRASELANIRVSDMELAGDGTAILTIPITKTNHSGEPDTCILSQDVVSLLMDYTEAGKLDMSSDGFLFVGVSKHNTCIKPKKDKQTGSGSGATNFSLLKQAGDVEENPGPLEGEVLHKPITTKTVEGVFYSAWETLDLGRQGVKPFTAHSARVGAAQDLLKKGYNTLQIQQSGRWSSGAMVARYGRAILARDGAMAHSRVKTRSAPMQWGKDEKDGGSGGSGGMISLIAALAVDYVIGMENAMPWNLPADLAWFKRNTLNKPVIMGRHTWESIGRPLPGRKNIILSSQPSTDDRVTWVKSVDEAIAACGDVPEIMVIGGGRVIEQFLPKAQKLYLTHIDAEVEGDTHFPDYEPDDWESVFSEFHDADAQNSHSYCFEILERR
modifications: HAtag; DOMAIN 21..179 Degradation Domain; SIGNAL 190..197 Nuclear Localization Signal; MISC_FEATURE - N-terminal side of VCre; MISC_FEATURE - P2A; MISC_FEATURE - C-terminal side of VCre; DOMAIN 613..771 Degradation Domain
Turning to B3, in series [3], the “background and TMP-dependent DNA recombination activity” value was “results similar to those of SPEED-Cre”.
